Source: article PMC3961188, “The bHLH Factors Extramacrochaetae and Daughterless Control Cell Cycle in Drosophila Imaginal Discs through the Transcriptional Regulation of the cdc25 Phosphatase string”

T1: Daughterless (Da), GST fusion (Drosophila melanogaster, UniProt P11420 1-710)
T1 sequence: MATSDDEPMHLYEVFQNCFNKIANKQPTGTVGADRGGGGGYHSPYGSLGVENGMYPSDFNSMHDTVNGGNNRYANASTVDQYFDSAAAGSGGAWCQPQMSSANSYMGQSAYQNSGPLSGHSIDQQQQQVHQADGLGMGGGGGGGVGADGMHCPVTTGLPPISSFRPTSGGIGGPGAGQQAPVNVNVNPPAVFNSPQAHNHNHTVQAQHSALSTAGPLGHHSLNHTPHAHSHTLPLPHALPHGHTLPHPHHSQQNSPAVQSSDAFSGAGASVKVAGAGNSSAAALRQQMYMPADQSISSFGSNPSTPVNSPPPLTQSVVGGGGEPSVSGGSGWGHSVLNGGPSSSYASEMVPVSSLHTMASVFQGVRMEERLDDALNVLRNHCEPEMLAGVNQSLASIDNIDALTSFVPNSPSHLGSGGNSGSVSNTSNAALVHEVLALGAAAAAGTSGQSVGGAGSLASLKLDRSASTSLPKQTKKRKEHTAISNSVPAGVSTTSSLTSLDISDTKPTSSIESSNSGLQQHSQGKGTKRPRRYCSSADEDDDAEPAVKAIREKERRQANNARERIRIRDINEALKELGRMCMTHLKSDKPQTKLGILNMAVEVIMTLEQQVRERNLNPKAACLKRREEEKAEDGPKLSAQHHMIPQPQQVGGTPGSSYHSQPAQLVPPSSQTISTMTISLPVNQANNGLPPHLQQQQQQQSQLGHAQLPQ

B1: stg prom* (cy5) (dsDNA)
DNA 1: TAGCTCATACTAGTATCGTGA
DNA 2: TCACGATACTAGTATGAGCTA
B2: stg prom (cy5 / cy3) (dsDNA)
DNA 1: TAGCTCATCAGCTGATCGTGA
DNA 2: TCACGATCAGCTGATGAGCTA

Columns and labels:
[1] = molecular target: T1, Daughterless (Da), GST fusion; test: EMSA; direct Cy5 probe; not stated in the material (EMSA buffer, salt, pH and temperature not given); settings: protein: recombinant; tags: N-terminal GST (pDEST 15); chain copies: 2; blunt
[2] = molecular target: T1, Daughterless (Da), GST fusion; test: EMSA; Cy5 and Cy3 versions of the probe; not stated in the material (EMSA buffer, salt, pH and temperature not given); settings: protein: recombinant; tags: N-terminal GST (pDEST 15); chain copies: 2; blunt

| Binder | binding result [1] | binding result [2] |
| --- | --- | --- |
| B1 | no binding |  |
| B2 |  | binds |
